Source: US20090233868A1, “Small antiviral peptides against hepatitis C virus” (priority 2005, published 2009)

How the values were obtained:
[1] = tested on: HCV IRES mediated translation; assay: In vitro translation of uncapped HCV-IRES-Luc monocistronic RNA in rabbit reticulocyte lysate; format: biochemical, hepatitis C virus; settings: 25 ng and 50 ng protein; data not shown
[2] = tested on: nonspecific RNA; assay: Filter binding assay with nonspecific RNA probe; settings: control probe, same filter-binding assay

B1: wt-La: purified recombinant full-length wildtype human La protein (p52) (protein, UniProt P05455 1-408, looked up)
chain: MAENGDNEKMAALEAKICHQIEYYFGDFNLPRDKFLKEQIKLDEGWVPLEIMIKFNRLNRLTTDFNVIVEALSKSKAELMEISEDKTKIRRSPSKPLPEVTDEYKNDVKNRSVYIKGFPTDATLDDIKEWLEDKGQVLNIQMRRTLHKAFKGSIFVVFDSIESAKKFVETPGQKYKETDLLILFKDDYFAKKNEERKQNKVEAKLRAKQEQEAKQKLEEDAEMKSLEEKIGCLLKFSGDLDDQTCREDLHILFSNHGEIKWIDFVRGAKEGIILFKEKAKEALGKAKDANNGNLQLRNKEVTWEVLEGEVEKEALKKIIEDQQESLNKWKSKGRRFKGKGKGNKAAQPGSGKGKVQFQGKKTKFASDDEHDEHDENGATGPVKRAREETDKEEPASKQQKTENGAGDQ
modifications: full-length
With B1 the “Stimulation of HCV IRES mediated translation in absence of peptide” value [1] was “dose dependent stimulation” and the “Binding of non-specific RNA probe (filter binding)” value [2] was “did not show considerable binding”.
